Values of other authors as cited in publication PMC11893814.

Biological target: wild-type microtubule GTP cap (Homo sapiens) (UniProt P68363)
Chain of UniProt P68363 (P68363 whole entry, chain 1 of 2): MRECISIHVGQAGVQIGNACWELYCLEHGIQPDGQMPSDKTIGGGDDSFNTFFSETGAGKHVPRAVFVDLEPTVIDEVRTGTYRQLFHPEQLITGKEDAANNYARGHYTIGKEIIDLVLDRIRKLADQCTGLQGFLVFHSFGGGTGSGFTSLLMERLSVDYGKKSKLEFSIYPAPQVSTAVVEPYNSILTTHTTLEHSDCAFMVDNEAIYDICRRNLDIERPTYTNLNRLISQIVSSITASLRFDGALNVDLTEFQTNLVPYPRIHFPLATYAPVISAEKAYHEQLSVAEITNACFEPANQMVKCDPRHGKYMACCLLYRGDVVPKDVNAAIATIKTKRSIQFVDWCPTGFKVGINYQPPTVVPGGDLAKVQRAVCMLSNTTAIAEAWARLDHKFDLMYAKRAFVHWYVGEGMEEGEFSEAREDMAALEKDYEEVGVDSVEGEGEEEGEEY
Chain of UniProt P68363 (A8K854 whole entry, chain 2 of 2, further chain): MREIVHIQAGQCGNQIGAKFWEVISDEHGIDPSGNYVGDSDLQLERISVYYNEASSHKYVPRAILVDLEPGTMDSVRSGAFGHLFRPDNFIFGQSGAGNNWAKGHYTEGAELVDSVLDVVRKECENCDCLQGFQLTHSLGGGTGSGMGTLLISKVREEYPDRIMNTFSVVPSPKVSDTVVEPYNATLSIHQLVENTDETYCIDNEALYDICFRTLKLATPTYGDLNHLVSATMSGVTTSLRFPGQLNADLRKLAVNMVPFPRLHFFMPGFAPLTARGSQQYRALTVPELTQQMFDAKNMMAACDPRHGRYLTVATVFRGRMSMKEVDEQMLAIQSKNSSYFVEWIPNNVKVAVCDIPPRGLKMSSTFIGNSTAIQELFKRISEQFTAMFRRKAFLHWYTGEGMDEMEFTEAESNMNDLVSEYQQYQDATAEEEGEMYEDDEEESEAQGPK

Kd: 39.6 nM
Substance: EB3 (from UniProt Q9UPY8)
